# Laboratory results taken from patent publication EP1828247B1 (Crucell Holland B.V., dated 2011).
# B1: SC04-289 (scFv)
# scFv: QMQLVQSGAEVKKPGESLRISCKGSGYSFTSNWITWVRQMPGKGLEWMGRIDPSDSYTNYSPSFQGHVTISADKSISTAYLQWSSLKASDTAMYYCARDVVGVGASDYYYYMDVWGKGTTVTVSSGTGGSGGTGSGTGGSTEIVLTQSPGTLSLSPGETATLSCRTSQSVSSSYLGWYQQKPGQAPRLLIYGASIRATGIPARFSGSGSGTEFTLTIDSLQSEDFAVYYCQQYNNWPPITFGQGTRLEIKR
# B2: SC04-311 (scFv)
# scFv: EVQLVQSGGGVVQPGRSLRLSCVASGFTFSKDAMHWVRQAPGKGLEWVAVISYDGSDKHYADSVKGRVTISRDNSRKTLYLRMDSLRAEDTALYYCARGYNSGHYFDYWGQGTLITVSSGTGGSGGTGSGTGGSTQSVLTQPPSVSAAPGQKVTISCSGTSSNIGDNYVSWYQHLPGTAPKLLIYDNNKRPSGIPDRFSGSKSGTSATLGVTGLQTGDEADYYCGTWDSSLTAVVFGGGTKLTVLG
# B3: SC04-299 (scFv)
# scFv: EVQLVETGGGVVQPGRSLRLSCAASGFTFSGYAMHWVRQAPGKGLDWVAVISYDGSEKYSADSVKGRFTISRDNSKNTLYLQMNSLRAEDTAVYYCAKESGGPIWYKYYGVDVWGQGTTVTVSSGTGGSGGTGSGTGGSTSYVLTQPPSLSAAPRQRVTISCSGSSSNIGNYGVNWYQQLPGKAPKLLIYYDDLLPSGVSDRFSGSKSGTSASLAISGLQSEDEGDYYCAAWDDTLSAWVFGGGTKLTVLG
# B4: SC04-283 (scFv)
# scFv: EVQLVQSGAEVKKSGESLKISCKGSGYTFNTYWIGWVRQMPGKGLEWMGIIYPGDSDTIYSPSFQGQVTISADKSISTAYLQWSSLKASDSAMYYCARLTFRRGYSGSDSFLPPGDFDYWGQGTLVTVSSGTGGSGGTGSGTGGSTDIQMTQSPSTLSASVGDRVTITCRASQSISSWLAWYQQKPGKAPNLLIYAASSLQSGVPSRFSGSGSGTDFTLTISSLQPDDSATYYCQQYNTYPLTFGGGTKVEIKR
# B5: SC04-271 (scFv)
# scFv: EVQLVETGAEVKKPGESLRISCKGSGYTFNNYWIGWVRQMPGKGLEWMGIIYPGDSDTRYSPSVQGHVTISADKSINTAYLQWSSLKASDTAVYYCARRPGYDYGFYYFDYWGQGTLVTVSSGTGGSGGTGSGTGGSTQSALTQPRSVSGSPGQSVTISCTGTSSDVGGYNYVSWYQHHPGKAPKLMIYDVSNRPLGVSNRFSGSKSGNTASLTISGLQAEDEADYYCSSYTSSSTYVFGTGTHLTVLS
# B6: SC04-361 (scFv)
# scFv: EVQLVQSGAEVKKPGESLKISCKASGFSFSTYWIGWVRQMPGKGLEWMGIIYPADSDTRYSPSFQGQVTISADKSISTAYLQWSSLKASDTAMYYCARLRGPYYDFWNGYRETHDAFNVWGQGTMVTVSSGTGGSGGTGSGTGGSTDVVMTQSPDSLAVSLGERATINCKSSQNILDNSDNKNFLAWYQQKPGQPPKLLIYWASARESGVPDRFSGSGSGTDFTLTISSLQAEDVALYYCQQYYNTPITFGQGTRLEIKR
# B7: SC04-353 (scFv)
# scFv: EVQLVQSGGGVVQPGRSLRLSCAASGFTFSNYAMHWVRQAPGKGLEWVAVISYDGGNKYYADSVKGRFTMSRDNSKNTLYLQMNSLRAEDTAVYYCARDFWSGYSMVDSYYYYMDVWGKGTTVTVSSGTGGSGGTGSGTGGSTETTLTQSPGTLSLSPGERATLSCRASQSVSNTFLAWYQQKPGQAPRLLIYGASSRATGIPDRFSGSGSGTDFTLTISRLEPEDFAAYYCQQYGSSLTFGPGTKVDIKR
# Molecular target: T1, West Nile virus strain USA99b (strain 385-99), whole virus (West Nile virus strain 385-99 (USA99b))
# T1 construct: also called WN virus; WNV
# Assay: phage antibody ELISA on coated whole inactivated WNV
row,Binder,OD 492nm
1,B1,0.759 OD 492nm
2,B2,1.04 OD 492nm
3,B3,1.07 OD 492nm
4,B4,1.21 OD 492nm
5,B5,0.984 OD 492nm

# Molecular target: T2, recombinantly expressed purified soluble WNV E protein (strain 382-99), truncated form with Myc and His tags (West Nile virus strain 382-99, UniProt Q9Q6P4 291-696)
# T2 construct: also called recombinant WNV-E protein; truncated E protein; not shown: Myc tag and His tag from pAdapt.myc.his
# T2 sequence: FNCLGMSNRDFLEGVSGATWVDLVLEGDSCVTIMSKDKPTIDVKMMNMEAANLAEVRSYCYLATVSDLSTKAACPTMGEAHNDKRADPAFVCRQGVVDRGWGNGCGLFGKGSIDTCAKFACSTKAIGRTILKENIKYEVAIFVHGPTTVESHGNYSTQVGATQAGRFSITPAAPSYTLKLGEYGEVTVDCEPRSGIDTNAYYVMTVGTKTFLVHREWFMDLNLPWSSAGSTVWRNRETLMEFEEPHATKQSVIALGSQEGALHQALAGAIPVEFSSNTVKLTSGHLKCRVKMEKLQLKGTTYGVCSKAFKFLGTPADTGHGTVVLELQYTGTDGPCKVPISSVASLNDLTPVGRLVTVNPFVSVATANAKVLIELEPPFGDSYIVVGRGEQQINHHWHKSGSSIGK
# Assay: phage antibody ELISA on coated recombinant soluble WNV E protein
row,Binder,binding result
1,B6,no binding
2,B7,no binding

# Molecular target: T2, recombinantly expressed purified …
# Assay: as above
# Remark: another data set of the same source
row,Binder,OD 492nm
1,B6,0.076 OD 492nm
2,B3,0.072 OD 492nm
3,B7,0.099 OD 492nm
4,B4,0.074 OD 492nm
5,B5,0.608 OD 492nm
